Assay [1] deals with T1, recombinant human VEGF165 (PeproTech EC Ltd.) (human, UniProt P15692-4 27-191).
T1 construct: Amine-coupled to a CM4 chip; also called hVEGF165
The experiment in a line: SPR, BIAcore T100, hVEGF165 amine-coupled on CM4 chip, scFv as analyte. The procedure: The Biacore-binding ability of scFvs was tested and the binding affinity was measured using the exemplary surface plasmon resonance method with BIAcore™-T100. […] For the surface plasmon resonance experiment, carboxymethylated dextran biosensor chips (CM4, GE Healthcare) were activated with N-ethyl-N′-(3-dimethylaminopropyl) carbodiimide hydrochloride and N-hydroxysuccinimide according to the supplier's instructions. […] The 4th flow cell of each chip was treated similarly except no proteins were immobilized prior to blocking, and the flow cell was used as in-line reference. […] The apparent dissociation rate constant (kd), the apparent association rate constant (kₐ) and the apparent dissociation equilibrium constant (KD) were calculated using one-to-one Langmuir binding model with BIAcore T100 evaluation Software version 1.1.

Assay [2] concerns the target VEGF (as used in the VEGFR competition ELISA). The experiment in a line: competition ELISA, VEGF binding to hVEGFR1; ratio to reference Luc.

VEGF (as used in the VEGFR competition ELISA), sequence (P15692 whole entry): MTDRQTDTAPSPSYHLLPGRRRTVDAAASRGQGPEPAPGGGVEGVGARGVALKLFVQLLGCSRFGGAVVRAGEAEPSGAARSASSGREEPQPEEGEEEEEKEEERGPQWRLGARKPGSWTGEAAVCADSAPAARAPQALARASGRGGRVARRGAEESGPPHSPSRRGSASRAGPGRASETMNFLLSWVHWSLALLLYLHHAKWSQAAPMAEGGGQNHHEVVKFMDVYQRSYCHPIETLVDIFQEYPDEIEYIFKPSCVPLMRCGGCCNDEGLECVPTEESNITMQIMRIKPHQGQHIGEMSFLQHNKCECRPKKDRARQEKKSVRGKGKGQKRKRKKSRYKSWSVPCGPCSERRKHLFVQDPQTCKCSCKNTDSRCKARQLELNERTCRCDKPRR
T1 sequence (P15692 other isoform, or with tags, fused parts or gaps limits assumed, form in doubt): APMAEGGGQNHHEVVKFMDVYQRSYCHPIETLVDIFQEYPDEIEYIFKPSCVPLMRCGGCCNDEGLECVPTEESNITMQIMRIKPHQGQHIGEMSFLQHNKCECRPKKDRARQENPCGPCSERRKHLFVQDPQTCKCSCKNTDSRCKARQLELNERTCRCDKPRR

B1: 511-min (scFv)
scFv: EIVMTQSPSTLSASVGDRVIITCQASQSINIWLSWYQQKPGKAPKLLIYRASTLASGVPSRFSGSGSGAEFTLTISSLQPDDFATYYCQANYAYSAGYGAAFGQGTKLTVLGGGGGSGGGGSGGGGSGGGGSEVQLVESGGGLVQPGGSLRLSCAASGFSLNTYYMNWVRQAPGKGLEWVSIIAPDDTTYYASWAKSRFTISRDNSKNTLYLQMNSLRAEDTAVYYCAKSGDTTAWGADIWGQGTLVTVSS
notes: NH2-VL-linker-VH-COOH; Min graft on FW1.4; also called 801
With B1, in assay [1], the Kd was found to be 2.53 nM, the koff amounted to 0.00128 s⁻¹ and the kon was found to be 505000 M⁻¹ s⁻¹. In assay [2], the “Rel. activity hVEGR1 comp. ELISA (EC50Luc [nM]/EC50test [nM])” value (“Rel. activity hVEGR1 comp. ELISA” for short) is 0.7 ratio.

B2: 578-min (scFv)
scFv: EIVMTQSPSTLSASVGDRVIITCQASEIIHSWLAWYQQKPGKAPKLLIYLASTLASGVPSRFSGSGSGAEFTLTISSLQPDDFATYYCQNVYLASTNGANFGQGTKLTVLGGGGGSGGGGSGGGGSGGGGSEVQLVESGGGLVQPGGSLRLSCAASGFSLTDYYYMTWVRQAPGKGLEWVSFIDPDDDPYYATWAKGRFTISRDNSKNTLYLQMNSLRAEDTAVYYCAKGDHNSGWGLDIWGQGTLVTVSS
notes: NH2-VL-linker-VH-COOH; Min graft on FW1.4; also called 820
Regarding B2, the “Rel. activity hVEGR1 comp. ELISA” value in assay [2] is 4.8 ratio.

B3: 534-min C-His (scFv, not shown: small tags and cut ends)
scFv: EIVMTQSPSTLSASVGDRVIITCQASQSINWLSWYQQKPGKAPKLLIYKESTLASGVPSRFSGSGSGAEFTLTISSLQPDDFATYYCQNNYDSGNNGFPFGQGTKLTVLGGGGGSGGGGSGGGGSGGGGSEVQLVESGGGLVQPGGSLRLSCAASGFSLSYYYMSWVRQAPGKGLEWVSIIGPGDYTDYASWAKGRFTISRDNSKNTLYLQMNSLRAEDTAVYYCAKGDDNSGWGEDIWGQGTLVTVSS
notes: Min graft with C-His in its name; also called 807
With B3, in assay [1], the Kd is 34.1 nM, the koff was determined as 0.00921 s⁻¹ and the kon is 271000 M⁻¹ s⁻¹.

B4: 509-maxII (scFv)
chain: EIVMTQSPSTLSASVGDRVIITCQASQNIRIWLSWYQQKPGKAPKLLIYKASTLESGVPSRFSGSGSGTEFTLTISSLQPDDFATYYCQNNAHYSTNGGTFGQGTKLTVLGGGGGSGGGGSGGGGSGGGGSEVQLVESGGGLVQPGGSLRLSCTASGFSLSSYYMSWVRQAPGKGLEWVGILDYVGDTDYASWAKGRFTISKDASKNTVYLQMNSLRAEDTAVYYCARTDDSRGWGLNIWGQGTLVTVSS
Turning to B4, in assay [1], the Kd turned out to be 3.37 nM, the off-rate (koff) is 0.00282 s⁻¹ and the kon stood at 838000 M⁻¹ s⁻¹. In assay [2], the “Rel. activity hVEGR1 comp. ELISA” value amounted to 0.09 ratio.

B5: 509-min (scFv)
scFv: EIVMTQSPSTLSASVGDRVIITCQASQNIRIWLSWYQQKPGKAPKLLIYKASTLESGVPSRFSGSGSGAEFTLTISSLQPDDFATYYCQNNAHYSTNGGTFGQGTKLTVLGGGGGSGGGGSGGGGSGGGGSEVQLVESGGGLVQPGGSLRLSCAASGFSLSSYYMCWVRQAPGKGLEWVSCLDYVGDTDYASWAKGRFTISRDNSKNTLYLQMNSLRAEDTAVYYCAKTDDSRGWGLNIWGQGTLVTVSS
notes: NH2-VL-linker-VH-COOH; Min graft on FW1.4; also called 854
Regarding B5, the “Rel. activity hVEGR1 comp. ELISA” value in assay [2] was 2.9 ratio.

B6: 567-min (scFv)
chain: EIVMTQSPSTLSASVGDRVIITCQADQSIYIWLSWYQQKPGKAPKLLIYKASTLESGVPSRFSGSGSGAEFTLTISSLQPDDFATYYCQNNAHYSTNGGTFGQGTKLTVLGGGGGSGGGGSGGGGSGGGGSEVQLVESGGGLVQPGGSLRLSCAASGFSLSDYYMCWVRQAPGKGLEWVSCLDYFGSTDDASWAKGRFTISRDNSKNTLYLQMNSLRAEDTAVYYCAKTDDSRGWGLNIWGQGTLVTVSS
On to B6, for which, in assay [2], the “Rel. activity hVEGR1 comp. ELISA” value amounted to 57 ratio.

The record behind these values is patent publication US20180127493A1 (ESBATECH AN ALCON BIOMEDICAL RESEARCH UNIT, published 2018).
